Experimental data as given in patent US20140348865A1, “[…] ON AN HIV-1 V1V2 SITE-OF-VULNERABILITY” (The United States of America, as represented by the …, priority 2011, published 2014).

Experiments:
1FD6-CAP45 V1V2 scaffold = assay: ELISA, supernatant on His grab plates
[1] = molecular target: 1FD6 CAP45 scaffold N156D; assay: ELISA, supernatant on His grab plates
[2] = molecular target: 1FD6 CAP45 scaffold N143D; assay: ELISA, supernatant on His grab plates
[3] = molecular target: 1FD6 CAP45 scaffold N192D; assay: ELISA, supernatant on His grab plates
[4] = molecular target: 1FD6 CAP45 scaffold N147D; assay: ELISA, supernatant on His grab plates
[5] = molecular target: 1FD6 CAP45 scaffold N160Q; assay: ELISA, supernatant on His grab plates
[6] = molecular target: Env of HIV-1 strain ZM135 (pseudovirus) (HIV-1)
[7] = molecular target: Env of HIV-1 strain 3873 (pseudovirus) (HIV-1)
[8] = molecular target: Env of HIV-1 strain 6322 (pseudovirus) (HIV-1)
[9] = molecular target: Env of HIV-1 strain 6631 (pseudovirus) (HIV-1)
[10] = molecular target: Env of HIV-1 strain CNE4 (pseudovirus) (HIV-1)
[11] = molecular target: Env of HIV-1 strain QH0515 (pseudovirus) (HIV-1)
[12] = molecular target: Env of HIV-1 strain T251-18 (pseudovirus) (HIV-1)
[13] = molecular target: Env of HIV-1 strain JRFL (pseudovirus) (HIV-1)
[14] = molecular target: Env of HIV-1 strain BG 1168 (pseudovirus) (HIV-1)
[15] = molecular target: Env of HIV-1 strain 7165.18 (pseudovirus) (HIV-1)
[16] = molecular target: Env of HIV-1 strain RHPA (pseudovirus) (HIV-1)

monoclonal antibody PG9 was tested. Which EC50 (1FD6-CAP45 V1V2 scaffold) did it give?
Its EC50 is 0.2 µg/mL.

And the EC50 [1]?
Its EC50 is 4.9 µg/mL.

What about the EC50 [2] of the same substance?
Its EC50 is 0.1 µg/mL.

What about the EC50 [3] of the same substance?
Its EC50 is 0.2 µg/mL.

And the EC50 [4]?
The EC50 was 0.1 µg/mL.

And the EC50 [5]?
Its EC50 is over 50 µg/mL.

And the neutralization IC50 [6]?
Its neutralization IC50 is over 50 µg/mL.

And the neutralization IC50 (ZM109.4)?
Its neutralization IC50 is 0.106 µg/mL.

And the neutralization IC50 [7]?
Its neutralization IC50 is over 50 µg/mL.

What about the neutralization IC50 (DU156.12) of the same substance?
The neutralization IC50 was under 0.023 µg/mL.

And the neutralization IC50 (3637.V5.C3)?
The neutralization IC50 was over 50 µg/mL.

And the neutralization IC50 (CAP244.D3)?
The neutralization IC50 was 0.088 µg/mL.

And the neutralization IC50 [8]?
The neutralization IC50 was over 50 µg/mL.

And the neutralization IC50 (CNE40)?
The neutralization IC50 was 1.16 µg/mL.

What about the neutralization IC50 (ZA012.29) of the same substance?
The neutralization IC50 was 27 µg/mL.

What about the neutralization IC50 (SO18.18) of the same substance?
Its neutralization IC50 is 0.061 µg/mL.

What about the neutralization IC50 [9] of the same substance?
The neutralization IC50 was over 50 µg/mL.

And the neutralization IC50 (CAP210.E8)?
The neutralization IC50 was 0.087 µg/mL.

And the neutralization IC50 (MW965.26)?
The neutralization IC50 was 1.99 µg/mL.

What about the neutralization IC50 (0077_V1.C16) of the same substance?
Its neutralization IC50 is 0.091 µg/mL.

What about the neutralization IC50 (DU151.02) of the same substance?
Its neutralization IC50 is under 0.023 µg/mL.

What about the neutralization IC50 (CNE53) of the same substance?
Its neutralization IC50 is 0.147 µg/mL.

What about the neutralization IC50 (6785.V5.C14) of the same substance?
The neutralization IC50 was under 0.023 µg/mL.

And the neutralization IC80 (SS1196.01 (HIV-1))?
The neutralization IC80 was 3.08 µg/mL.

And the neutralization IC80 [10]?
Its neutralization IC80 is over 50 µg/mL.

What about the neutralization IC80 (CNE57 (HIV-1)) of the same substance?
Its neutralization IC80 is over 50 µg/mL.

And the neutralization IC80 [11]?
The neutralization IC80 was over 50 µg/mL.

What about the neutralization IC80 (CAAN.A2 (HIV-1)) of the same substance?
The neutralization IC80 was over 50 µg/mL.

What about the neutralization IC80 [12] of the same substance?
Its neutralization IC80 is over 50 µg/mL.

And the neutralization IC80 (T278-50 (HIV-1))?
The neutralization IC80 was 6.06 µg/mL.

And the neutralization IC80 [13]?
The neutralization IC80 was over 50 µg/mL.

And the neutralization IC80 (Bal.01 (HIV-1))?
The neutralization IC80 was 1.52 µg/mL.

What about the neutralization IC80 (CH070.1 (HIV-1)) of the same substance?
Its neutralization IC80 is 0.024 µg/mL.

And the neutralization IC80 (HXB2.DG (HIV-1))?
The neutralization IC80 was 10.2 µg/mL.

And the neutralization IC80 (BX08_16 (HIV-1))?
The neutralization IC80 was 0.273 µg/mL.

And the neutralization IC80 (BR07.DG (HIV-1))?
The neutralization IC80 was over 50 µg/mL.

What about the neutralization IC80 (SF162.LS (HIV-1)) of the same substance?
The neutralization IC80 was over 50 µg/mL.

What about the neutralization IC80 (REJO.67 (HIV-1)) of the same substance?
Its neutralization IC80 is 0.08 µg/mL.

What about the neutralization IC80 (PVO.04 (HIV-1)) of the same substance?
Its neutralization IC80 is 37.1 µg/mL.

What about the neutralization IC80 (T250-4 (HIV-1)) of the same substance?
Its neutralization IC80 is 0.001 µg/mL.

And the neutralization IC80 (HT593.1 (HIV-1))?
The neutralization IC80 was 5.41 µg/mL.

What about the neutralization IC80 [14] of the same substance?
The neutralization IC80 was over 50 µg/mL.

And the neutralization IC80 (89.6.DG (HIV-1))?
Its neutralization IC80 is over 50 µg/mL.

And the neutralization IC80 (SC422.8 (HIV-1))?
Its neutralization IC80 is 38.6 µg/mL.

What about the neutralization IC80 (T266-60 (HIV-1)) of the same substance?
The neutralization IC80 was over 50 µg/mL.

And the neutralization IC80 (DJ263.8 (HIV-1))?
Its neutralization IC80 is 0.733 µg/mL.

And the neutralization IC80 (T33-7 (HIV-1))?
Its neutralization IC80 is 0.087 µg/mL.

What about the neutralization IC80 (BL01.DG (HIV-1)) of the same substance?
The neutralization IC80 was over 50 µg/mL.

What about the neutralization IC80 (T257-31 (HIV-1)) of the same substance?
Its neutralization IC80 is 0.075 µg/mL.

And the neutralization IC80 (T255-34 (HIV-1))?
The neutralization IC80 was 0.114 µg/mL.

And the neutralization IC80 (HO86.8 (HIV-1))?
Its neutralization IC80 is 0.125 µg/mL.

And the neutralization IC80 [15]?
The neutralization IC80 was over 50 µg/mL.

What about the neutralization IC80 (THRO.18 (HIV-1)) of the same substance?
Its neutralization IC80 is over 50 µg/mL.

What about the neutralization IC80 (AC10.29 (HIV-1)) of the same substance?
Its neutralization IC80 is 0.306 µg/mL.

And the neutralization IC80 (CNE14 (HIV-1))?
Its neutralization IC80 is over 50 µg/mL.

What about the neutralization IC80 (YU2.DG (HIV-1)) of the same substance?
Its neutralization IC80 is over 50 µg/mL.

What about the neutralization IC80 (T280-5 (HIV-1)) of the same substance?
The neutralization IC80 was 1.94 µg/mL.

And the neutralization IC80 (JRCSF.JB (HIV-1))?
The neutralization IC80 was 0.009 µg/mL.

And the neutralization IC80 (CNE12 (HIV-1))?
Its neutralization IC80 is over 50 µg/mL.

And the neutralization IC80 [16]?
Its neutralization IC80 is over 50 µg/mL.

What about the neutralization IC80 (BaL.26 (HIV-1)) of the same substance?
The neutralization IC80 was 0.365 µg/mL.

And the neutralization IC80 (MN.3 (HIV-1))?
The neutralization IC80 was over 50 µg/mL.

What does the source list for monoclonal antibody PG16?
EC50 (1FD6-CAP45 V1V2 scaffold): 9.1 µg/mL; EC50 [1]: > 50 µg/mL; EC50 [2]: 3.3 µg/mL; EC50 [3]: 27 µg/mL; EC50 [4]: 0.7 µg/mL; EC50 [5]: > 50 µg/mL; neutralization IC50 [6]: > 50 µg/mL; neutralization IC50 (ZM109.4): 4.93 µg/mL; neutralization IC50 [7]: 12.2 µg/mL; neutralization IC50 (DU156.12): < 0.023 µg/mL; neutralization IC50 (3637.V5.C3): > 50 µg/mL; neutralization IC50 (CAP244.D3): < 0.023 µg/mL; neutralization IC50 [8]: > 50 µg/mL; neutralization IC50 (CNE40): 49 µg/mL; neutralization IC50 (ZA012.29): 0.631 µg/mL; neutralization IC50 (SO18.18): 0.023 µg/mL; neutralization IC50 [9]: > 50 µg/mL; neutralization IC50 (CAP210.E8): < 0.023 µg/mL; neutralization IC50 (MW965.26): 0.961 µg/mL; neutralization IC50 (0077_V1.C16): < 0.023 µg/mL; neutralization IC50 (DU151.02): < 0.023 µg/mL; neutralization IC50 (CNE53): > 50 µg/mL; neutralization IC50 (6785.V5.C14): < 0.023 µg/mL; neutralization IC80 (SS1196.01 (HIV-1)): 2.9 µg/mL; neutralization IC80 [10]: > 50 µg/mL; neutralization IC80 (CNE57 (HIV-1)): > 50 µg/mL; neutralization IC80 [11]: > 50 µg/mL; neutralization IC80 (CAAN.A2 (HIV-1)): > 50 µg/mL; neutralization IC80 [12]: > 50 µg/mL; neutralization IC80 (T278-50 (HIV-1)): > 50 µg/mL; neutralization IC80 [13]: > 50 µg/mL; neutralization IC80 (Bal.01 (HIV-1)): > 50 µg/mL; neutralization IC80 (CH070.1 (HIV-1)): 0.013 µg/mL; neutralization IC80 (HXB2.DG (HIV-1)): > 50 µg/mL; neutralization IC80 (BX08_16 (HIV-1)): 38.8 µg/mL; neutralization IC80 (BR07.DG (HIV-1)): > 50 µg/mL; neutralization IC80 (SF162.LS (HIV-1)): > 50 µg/mL; neutralization IC80 (REJO.67 (HIV-1)): 0.4 µg/mL; neutralization IC80 (PVO.04 (HIV-1)): > 50 µg/mL; neutralization IC80 (T250-4 (HIV-1)): 0.001 µg/mL; neutralization IC80 (HT593.1 (HIV-1)): 13.7 µg/mL; neutralization IC80 [14]: > 50 µg/mL; neutralization IC80 (89.6.DG (HIV-1)): > 50 µg/mL; neutralization IC80 (SC422.8 (HIV-1)): > 50 µg/mL; neutralization IC80 (T266-60 (HIV-1)): > 50 µg/mL; neutralization IC80 (DJ263.8 (HIV-1)): 1.11 µg/mL; neutralization IC80 (T33-7 (HIV-1)): 0.279 µg/mL; neutralization IC80 (BL01.DG (HIV-1)): > 50 µg/mL; neutralization IC80 (T257-31 (HIV-1)): 0.021 µg/mL; neutralization IC80 (T255-34 (HIV-1)): 0.079 µg/mL; neutralization IC80 (HO86.8 (HIV-1)): 0.02 µg/mL; neutralization IC80 [15]: > 50 µg/mL; neutralization IC80 (THRO.18 (HIV-1)): > 50 µg/mL; neutralization IC80 (AC10.29 (HIV-1)): 0.088 µg/mL; neutralization IC80 (CNE14 (HIV-1)): > 50 µg/mL; neutralization IC80 (YU2.DG (HIV-1)): > 50 µg/mL; neutralization IC80 (T280-5 (HIV-1)): 4.53 µg/mL; neutralization IC80 (JRCSF.JB (HIV-1)): 0.015 µg/mL; neutralization IC80 (CNE12 (HIV-1)): > 50 µg/mL; neutralization IC80 [16]: > 50 µg/mL; neutralization IC80 (BaL.26 (HIV-1)): > 50 µg/mL; neutralization IC80 (MN.3 (HIV-1)): > 50 µg/mL
